Laboratory results taken from US20220112236A1.

Columns and labels:
[1] = target: Polyclonal human IgG Gammanorm (human); assay: affinity chromatography column, IgG binding capacity after 24 h in 0.5 M NaOH at room temperature relative to before incubation
[2] = target: Polyclonal human IgG Gammanorm (human); assay: affinity chromatography, commercial resin packed in column, polyclonal human IgG (Gammanorm) applied, DBC at 6 min residence time

In the case of MabSelect SuRe, the Remaining binding capacity after 24h 0.5M NaOH incubation [1] was 75.2% and the Dynamic binding capacity at 6 min residence time [2] was 41.8 mg/mL.
